Experimental data from patent US12187807B2, “Antibody molecules to C5AR1 and uses thereof” (Visterra, Inc., priority 2020, dated 2025).
Changes are numbered by the printed parent chain. Values belong to the molecule of their own block, whether it stands above or below them.

What was measured:
[1] = oral administration, human C5aR1 transgenic mice; cited from earlier work
[2] = tested on: control cells that were mock transfected; experiment: Cell surface binding (flow cytometry), mock transfected Expi293 control cells; details: staining with 100 nM of antibody
Procedure: (§1) Follow up screening to ensure specificity was performed by measuring cell surface binding to cells expressing, for example, human C5aR1, human C5aR2, mouse C5aR1, and control cells that were mock transfected. Briefly, cell surface binding was performed on various C5aR1 expressing cell lines (transiently expressed Expi293 cells, stable C5aR1-U937 cells, and neutrophils isolated from whole blood). Briefly, a titration of antibody diluted in flow buffer (1×PBS with 2% fetal bovine serum) was incubated with cells for 1 hour at 4° C. Cells were washed twice with flow buffer. Anti-human-APC secondary antibody was diluted 1:400 in flow buffer and incubated with cells for 30 minutes. Cells were washed twice with flow buffer and resuspended in 100 μL of flow buffer. Fluorescence was measured using the iQue Screen Plus flow cytometer.

[3] = target: T1, human C5aR1 transiently expressed on the surface of Expi293 cells (Homo sapiens, UniProt P21730, K279N); experiment: Cell surface binding (flow cytometry), Expi293 cells transiently expressing human C5aR1; details: staining with 100 nM of antibody
T1 construct: expressed in transfected cells; host or cells: Expi293 cells, transient
T1 sequence (P21730 with tags, fused parts or gaps K279N limits assumed): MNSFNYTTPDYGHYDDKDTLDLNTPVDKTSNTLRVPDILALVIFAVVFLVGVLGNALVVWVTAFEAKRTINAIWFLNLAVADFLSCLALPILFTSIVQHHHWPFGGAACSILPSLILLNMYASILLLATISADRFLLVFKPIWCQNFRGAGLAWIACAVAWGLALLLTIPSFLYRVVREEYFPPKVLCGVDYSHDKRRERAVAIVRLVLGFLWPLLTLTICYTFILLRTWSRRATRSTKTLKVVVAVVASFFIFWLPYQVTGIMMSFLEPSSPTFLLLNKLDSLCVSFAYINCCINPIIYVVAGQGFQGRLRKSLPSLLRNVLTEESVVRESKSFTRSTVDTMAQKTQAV
Procedure: as §1

[4] = target: T2, biotinylated peptide representing ECL2 of C5aR1 (Homo sapiens, UniProt P21730); experiment: Epitope mapping by biolayer interferometry, ECL2 peptide; type: binding; design: key: “+” indicates binding to the listed peptide; “−” indicates lack of binding to the listed peptide; details: biolayer interferometry, 10 μg/mL of antibody, biotinylated peptide on streptavidin biosensor
T2 construct: cyclic ECL2 peptide spanning from residues R175 to C188
Procedure: (§2) The epitope mapping was undertaken, using biolayer interferometry, on a series of exemplary anti-C5aR1 antibodies generated as described in Example 1. Briefly, for each antibody, biotinylated peptides representing ECL2, the N-terminus with tyrosine sulfation, and the N-terminus without tyrosine sulfation, were immobilized in a streptavidin biosensor. Subsequently, the biosensor was exposed to 10 μg/mL of antibody to detect antibody binding to the immobilized peptide. The results of the epitope mapping study are shown in Table 4 (“+” indicates binding to the listed peptide; “−” indicates lack of binding to the listed peptide).

[5] = target: T3, biotinylated peptide representing the N-terminus of C5aR1 without tyrosine sulfation (Homo sapiens, UniProt P21730); experiment: Epitope mapping by biolayer interferometry, N-terminus without tyrosine sulfation; type: binding; design: key: “+” indicates binding to the listed peptide; “−” indicates lack of binding to the listed peptide; details: 10 μg/mL of antibody, biotinylated peptide on streptavidin biosensor
T3 construct: the N-terminus without tyrosine sulfation
T3 sequence (P21730 1-37 limits assumed): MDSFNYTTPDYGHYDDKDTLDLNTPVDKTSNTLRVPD
Procedure: as §2

C5aR1 [6] = target: T4, C5aR1 (Homo sapiens, UniProt P21730); experiment: GeneBLAzer reporter assay (C5aR1 mediated Gα signaling); type: cell-based; design: host or cells: vendor's C5aR1 GeneBLAzer reporter cell line; details: 10 nM of antibody, 10 nM C5a
T4 sequence (P21730 1-350): T1 sequence (P21730 with tags, fused parts or gaps K279N limits assumed) with N2D, N279K
Procedure: In addition, a GeneBLAzer reporter assay was used, which mimics the calcium flux assay. The GeneBLAzer assay kit and C5aR1 cell line were commercially available from Thermo Fisher (Catalog #K1544). The assay was performed as recommend by the manufacturer. Briefly, antibodies or antagonists were incubated for 30 minutes at 37° C. C5a was then added to the cells and incubated at 37° C. for an additional 4-5 hours. Beta-lactamase substrate was then added and incubated for 2 hours at room temperature. Fluorescent measurements for each well with an excitation/emission of 409/460 (blue) and 409/530 (green) were measured. An increase in the blue to green ratio was proportional to C5aR1 activation and was used to calculate the percent of activation for the cells in each well.
Exemplary anti-C5aR1 antibodies generated as described in Example 1 were screened for antagonist activity against human C5aR1 using the GeneBLAzer assay, as described in Example 1. Briefly, cells were pre-incubated with 10 nM of antibody followed by addition of 10 nM C5a. The engineered induction of beta-lactamase expression by C5a-C5aR1 signaling was measured using the BLA substrate and calculating the ratio of blue and green fluorescence.

C5aR1 (C5aR1-U937 cells) [7] = target: T5, C5aR1 (C5aR1-U937 cells) (Homo sapiens, UniProt P21730, K279N); experiment: C5a induced calcium flux (Fluo-4), C5aR1-U937 cells; type: cell-based
T5 construct: expressed in transfected cells
T5 sequence (P21730 with tags, fused parts or gaps K279N limits assumed): T1 sequence (P21730 with tags, fused parts or gaps K279N limits assumed)
Excerpt: (§3) Intracellular calcium is released into the cytoplasm by stimulation of GPCRs and acts as a second messenger of GPCR signaling, commonly used to quantify GPCR agonism and antagonism. As such, calcium flux assays using calcium sensitive dye were utilized to detect cytosolic changes in calcium concentration. […] The dye penetrated the cell membrane and became active once inside the cell. The active form of the dye became fluorescent after binding to intracellular calcium and the fluorescence was used to determine C5aR1 signaling in response to C5a addition. Specifically, stable C5aR1-U937 cells or neutrophils isolated from whole blood were stained with Fluo-4 Direct Calcium Assay kit from Thermo Fisher for 1 hour at 37° C. Next, antibody or antagonist was incubated with the cells for 30 minutes. The basal fluorescence with an excitation at 494 nm and emission at 516 nm was measured for 15 seconds. C5a was added to the cells and the fluorescence was measured over a span of four minutes. The basal read from before C5a stimulation and the max signal after C5a stimulation were used to calculate the response ratio. The potency of the antibodies was assessed for their ability to inhibit intracellular calcium release in C5aR1 expressing cells in the presence of C5a. Similar to the chemotaxis assay, the calcium flux assays were performed using engineered cells stably expressing C5aR1 as well as using human neutrophils.

[8] = target: T6, biotinylated peptide representing the N-terminus of C5aR1 with tyrosine sulfation (Homo sapiens, UniProt P21730); experiment: Epitope mapping by biolayer interferometry, N-terminus with tyrosine sulfation; type: binding; design: key: “+” indicates binding to the listed peptide; “−” indicates lack of binding to the listed peptide; details: 10 μg/mL of antibody, biotinylated peptide on streptavidin biosensor
T6 construct: the N-terminus with tyrosine sulfation
T6 sequence (P21730 1-37): T3 sequence (P21730 1-37 limits assumed)
Procedure: as §2

[9] = target: T7, C5aR1 (human neutrophils) (Homo sapiens, UniProt P21730); experiment: C5a induced calcium flux (Fluo-4), human neutrophils; type: cell-based
T7 construct: neutrophils isolated from whole blood; host or cells: human neutrophils (cryopreserved, or isolated from whole blood)
T7 sequence (P21730 1-350): T1 sequence (P21730 with tags, fused parts or gaps K279N limits assumed) with N2D, N279K
Excerpt: as §3

C5aR1 (C5aR1-U937 cells) [10] = target: T5, C5aR1 (C5aR1-U937 cells); experiment: C5a induced chemotaxis (transwell), C5aR1-U937 cells; type: cell-based; details: C5aR1-U937 cells; 1, 10, or 100 nM antibody; C5a 10^−6 to 10^−9.5 M
Excerpt: (§4) One of the primary mechanisms by which neutrophils migrate to the site of inflammation is by chemotaxis induced by a C5a/C5adesArg gradient is detected by C5aR1 signaling. Anti-C5aR1 antibodies were thus assessed in a chemotaxis assay for their ability to block C5a induced migration of neutrophils. The assay involved cell migration in a double chamber well separated by filters. The cells and inhibitors were applied into the upper chamber and the lower chamber was filled with the chemoattractant, causing the cells to migrate to the lower chamber. The inhibition activity was evaluated by counting the migrated cell numbers. Specifically, a titration of C5a was added to the bottom chamber a 96 transwell plate. Cells expressing human C5aR1 (C5aR1-U937 cells or human neutrophils) were incubated with or without antagonist and then seeded into the top chamber of the transwell plate. The cells were incubated for 2 hours. Cells that migrated to the bottom chamber were quantified using the CyQUANT cell proliferation kit following the manufacturer's protocol. The assay was performed using engineered cells stably expressing C5aR1 as well as using human neutrophils.
as §4, with “Anti-C5aR1” for “One of the primary mechanisms by which neutrophils migrate to the site of inflammation is by chemotaxis induced by a C5a/C5adesArg gradient is detected by C5aR1 signaling. Anti-C5aR1”, “were” for “were thus”
In a first experiment, C5aR1-U937 cells were seeded into the top chamber of a 96 Transwell plate in the presence of no antibody (antagonist), or of 1, 10, or 100 nM antibody (antagonist).

C5aR1 [11] = target: T4, C5aR1; details: cited from earlier work

Molecule: Cc1ccc(NC(=O)[C@H]2CCCN(C(=O)c3c(C)cccc3F)[C@H]2c2ccc(NC3CCCC3)cc2)cc1C(F)(F)F [Avacopan, avacopan]
- severity of anti-MPO NCGN [1]: reduced the severity of anti-MPO NCGN

B2: Clone_317v2-1 (antibody, V domains shown)
VH: QVQLQQPGAELVMPGASVKLSCKASGYTFTSYWMHWVKQRPGQGLEWIGEIDPSDSYTNYNQKFKGKATLTVDKSSSTAYMQLSSLTSEDSAVYYCARVAYYSNFGGFAYWGQGTTVTVSS
VL: DIVMTQSPSSLSVSAGEKVTMSCKSSQSLLKSGNQKNYLAWHQQKPGQPPKLLIYGASTRESGVPDRFTGSGSGTDFTLTISSVQAEDLAVYYCQNDHSHPYTFGGGTKLEIK
- Cell surface binding, Mock transfection, geometric mean fluorescent intensity [2]: 4,535 Clone_507
- Cell surface binding, Human C5aR1, geometric mean fluorescent intensity [3]: 8,106

B4: Clone_11v2 (antibody, V domains shown)
VH: QVQLQQSGPELVKPGASVKISCKASGYSFSSSWMNWVKQRPGKGLEWIGRISPGDGDTRYSGKFKGKATLTADKSSSTAYMQVTSLTSEDSAIYFCVRFLITSTRYVMDYWGQGTTVTVSS
VL: DVVMTQTPLSLPVSLGDQASISCRSSQSLVHSNGNTYLHWYLQKPGQSPKLLIYKVSNRFSGVPDRFSGSGSGTDFTLKISRVEAEDLGVYFCSQSTLVPPTFGGGTKLEIK
- Cell surface binding, Mock transfection, geometric mean fluorescent intensity [2]: 4,976 Clone_454
- Cell surface binding, Human C5aR1, geometric mean fluorescent intensity [3]: 310,187

B5: C5a: complement component 5a, agonist of C5aR1 (protein, UniProt P01031 678-751, looked up)
C5a anaphylatoxin: TLQKKIEEIAAKYKHSVVKKCCYDGACVNNDETCEQRAARISLGPRCIKAFTECCVVASQLRANISHKDMQLGR
modifications: C5a anaphylatoxin
notes: complement component 5a, agonist of C5aR1
- on rate for C5aR1 (C5aR1 [11]): about 4.8e8 M^−1min^−1

More lines, main results first:

- Cell surface binding, Human C5aR1, geometric mean fluorescent intensity [3]: 223,156
B1: Clone_336_v2-1 (antibody, V domains shown)
VH: QVQLKQSGPGLVQSSQSLSITCTVSGFSLISYGVHWVRQSPGKGLEWLGVIWSGGSTDYNAAFKSRLSITKDNSKSQVFFKMNSLQADDTAIYYCAKNSQLGNAMDYWGQGTTVTVSS
VL: DIVMSQSPSSLAVSAGEKVTMSCKSSQSLLSSRTRKNYLAWYQQKPGQSPKLLIYWASTRESGVPDRFTGSGSGTDFTLTISSVQAEDLALYFCNQSYDLLTFGAGTKLEIK
- Cell surface binding, Mock transfection, geometric mean fluorescent intensity [2]: 5,007 Clone_511v2

- Binding to Cyclic ECL2 peptide [4]: +
- Binding to Non-sulfated N-terminal peptide [5]: −
- antagonism of C5aR1 compared to reference antibodies or to Avacopan (C5aR1 [6]): improved
- Binding to Sulfated N-terminal peptide [8]: −
- inhibition of cell chemotaxis (C5aR1 (C5aR1-U937 cells) [10]): strongest effects
B3: clone 11v2: anti-C5aR1 Site II antibody; VH SEQ ID NO: 482, VL SEQ ID NO: 542 (antibody, V domains shown)
VH: B4 VH
VL: B4 VL
- inhibition of C5a induced intracellular calcium flux (C5aR1 (C5aR1-U937 cells) [7]): inhibition of the C5a induced calcium efflux
- inhibition of C5a induced calcium efflux [9]: inhibition of the C5a induced calcium efflux
